Measured values reported in paper doi:10.1101/2022.01.31.478465 (bioRxiv, 2022).

Target: T1, AtPRP40b, recombinant (A. thaliana, UniProt F4JCC1 1-992)
T1 sequence: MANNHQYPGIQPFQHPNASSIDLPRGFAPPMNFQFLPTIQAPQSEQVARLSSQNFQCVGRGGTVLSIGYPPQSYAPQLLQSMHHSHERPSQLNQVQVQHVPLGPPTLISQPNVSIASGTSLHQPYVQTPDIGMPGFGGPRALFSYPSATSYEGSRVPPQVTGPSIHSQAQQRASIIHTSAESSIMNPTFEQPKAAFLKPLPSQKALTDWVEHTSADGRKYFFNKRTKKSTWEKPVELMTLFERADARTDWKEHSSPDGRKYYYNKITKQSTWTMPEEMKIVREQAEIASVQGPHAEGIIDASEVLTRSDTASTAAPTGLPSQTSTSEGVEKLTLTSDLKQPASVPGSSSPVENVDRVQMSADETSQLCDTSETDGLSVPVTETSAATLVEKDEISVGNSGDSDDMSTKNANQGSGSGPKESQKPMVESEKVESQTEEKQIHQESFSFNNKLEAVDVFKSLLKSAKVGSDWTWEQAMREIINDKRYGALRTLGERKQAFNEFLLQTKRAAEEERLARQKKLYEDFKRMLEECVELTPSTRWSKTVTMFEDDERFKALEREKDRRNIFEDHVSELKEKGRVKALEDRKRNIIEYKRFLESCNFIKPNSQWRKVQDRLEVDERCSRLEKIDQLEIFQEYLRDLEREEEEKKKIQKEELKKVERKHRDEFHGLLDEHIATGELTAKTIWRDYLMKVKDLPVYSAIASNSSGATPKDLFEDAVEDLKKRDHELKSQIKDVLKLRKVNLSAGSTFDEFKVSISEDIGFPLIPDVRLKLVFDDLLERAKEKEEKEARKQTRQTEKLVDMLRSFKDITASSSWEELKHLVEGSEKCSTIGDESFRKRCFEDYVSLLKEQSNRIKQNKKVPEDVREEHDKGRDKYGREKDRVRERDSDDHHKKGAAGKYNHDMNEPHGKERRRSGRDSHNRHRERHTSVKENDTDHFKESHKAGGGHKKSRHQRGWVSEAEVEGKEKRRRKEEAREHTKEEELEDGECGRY
Assay: pull-down

binding result: binds
B1: SERRATE (SE), full length, recombinant (natural protein, A. thaliana, UniProt Q9ZVD0 1-720, looked up)
chain: MADVNLPPSDSVDNRLPEKSTSSSPPPPPPSSSLPQQEQEQDQQQLPLRRERDSRERRDERDIERPPPNRRERDRSPLPPPRRDYKRRPSLSPPPPYRDRRHSPPQRRSPPQKRYRRDDNGYDGRRGSPRGGYGPPDRRFGYDHGGGYDREMGGRPGYGDERPHGRFMGRYQDWEGGRGGYGDASNSGNPQRDGLMSYKQFIQELEDDILPSEAERRYQEYKSEYITTQKRAFFNTHKEEDWLKNKYHPTNLLSVIERRNDLAQKVAKDFLLDLQSGTLDLGPAVTALNKSGRTSEPNSEDEAAGVGKRKRHGMGGAKENELLSAAPKAPSFTSDPKRILTDVEQTQALVRKLDSEKKIEENVLQGSETEKSGREKLHSGSTGPVVIIRGLTSVKGLEGVELLDTLVTYLWRVHGLDYYGKVETNEAKGLRHVRAEGKVSDAKGDENESKFDSHWQERLKGQDPLEVMAAKEKIDAAATEALDPHVRKIRDEKYGWKYGCGAKGCTKLFHAAEFVYKHLKLKHTELVTELTTKVREELYFQNYMNDPNAPGGQPATQQSGPRDRPIRRKPSMENRLRDDRGGRRERDGRANGNDRNDRSEDQQRGDNDGGNPGEVGYDAFGGQGGVHVPPFLSDINPPPMLMPVPGAGPLGPFVPAPPEVAMQMFRDPSGPNPPFEGSGRGGPAPFLLSPAFRQDPRRLRSYQDLDAPEEEVTVIDYRSL
